Reference: the DeepSol protein solubility set

Assay: soluble on expression in E. coli; label from the status in PepcDB or PDB records

| Sequence | soluble on expression in E. coli |
| --- | --- |
| MKSIRSRKSRRLRANRRKKRVHQPKLRQKPAKASQSRSRRMSRTDYISENVYIVLVYPKYQGNIGAVARSMWNSGLRHLIIIGNRPDDEAFARSMGGRFILENAEIYDDFASVISRFNVIAATSSTASSNEKHFRRLPLTPEKFWEEMSDQGGKIALVFGREDDGLRNEEIEKCNYFINIPGNPEYPVYNLSHAVAIILYVMFTRFNPPENIEIRAIEPDHEDLMLRNIIEVMRLTSYPEHKIRNTELLLRRLIARSRMSDREYFRMMGVIRRVKESLQRPLENESDHQRN | not soluble |
| DLFVVEKPPSLPVHTCGQYAIHTVLGQLRVNEGRTGLRVLHRLDRATSGVLLFAKNYETDLEFKTTLKQGEWSKEYICKVDGVFPDEEQVCEQPIGPLVISMGIQCVRPDGKDAKSRFRKLWSDGTQSVVQVHIETGRTHQIRVHSQF | not soluble |
| GYQPEKHAVVKSDRGDGRLLSTYAIVHEMLKDTHPQYAYRSGMSAQEFTQWQDGVRAAMVEIMKFPEIKRQPSPVCVKTEKKEGYILEKWEFYPFPKSVSTFLVLKPEHLKGAVPGVLCIPGSGRTKEGLVGEPGICDKLTEDYNNPKVSMALNMVKEGYVAVAVDNAAAGEASDLECYDKGWNYDYDVVSRFLLELGWSWLGYTSYLDMQVLNWMKAQSYIRKDRIVISGFSLGTEPMMVLGVLDKDIYAFVYNDFLCQTQERAVVMTKPDKENRRPFPNSIRHLIPGYWRYFNFPDVVASLAPRPIIFTEGGLDRDFRLVQSAYAASGKPENAEFHHYPKFADKAVRKDVEHLDEGLDSKTYFEAVNVDPPSHYFKNELVIPWLRKVLK | soluble |
| MLSSQAYDIAIVGGGMVGLATAIGLAQADLNVVVIDAGHTEAVSGEPRLRVSAINKASQRLLEHLGAWHYVDASRATPYQKMAVWDKDGFGKIAFDASSISEPSLGAIIENDAISYALAKRASEFDNITHIENQRLERIAFGEREAWLTLANSADAEIESVSAALVIAADGANSWVREQCKIPLTFWDYGHHAIVATIRSEMPHLATARQVFLQDGPLAFLPLYEDNLCSIVWSVPPERATELLAMDKVQFERNLTAAFDGRLGICKLESERQAFPLRMRYARHFARHRLVLAGDAAHTIHPLAGQGVNLGFLDAASIIEVISELQQAGKDIGDYAELRALERWRKADAMEMIAAMEGFKRLFEGSNPVKKAIRDLGLNLVDNVAGLKTVFMQQAMGNKSSLPKLCRLEHHHHHH | soluble |
| MGSDKIHHHHHHMMNQFFEPPRVEALHVQNYRALQNVRLDSITPLTVLLGPNGSGKSTLVDVFAFLSECFGEGLRKAWDRRGRFRELRSRDSVGPIVIELQYREKPGTPLITYHLEIDEKDRGPVVKREFLRWKRTHPGAPFYFLDYREGVGRVITGEQPESQDKRIEKPLSGPDVLAVNTLGQLAENPRVIALRAFITSWHLSYLSADAARGNPEAGAEERLSQTGDNLANVIQYLGEEHPERLNKIFETLKRRVPRIEKVTSRPLDDGRLLLQVKDAPFSSPVLARFASDGTLKMLAYLILLYDPEPPQLIGIEEPENYLHPRLLPELAEECDMASERTQLIVTTHSPFFIDRLRPEQVRVLYRGADGYTRAKRVADMRGIGEFLEAGASLGDLWMEGHFDVGDPLAGEEGA | not soluble |
| MGSDKIHHHHHHMLEFVNVSKSFWTGTQRKIILDKVSFTVELGTSLGILAPNGTGKTTLINMMAGLEKPDEGEIYRGCKISFPLGFMGGVINRLSAMENCRYIARLYGLDPDYVESYCRWLCGLNEYFDQPLGTYSAGMKSRFSFALMLALDFDIYLIDEGMPSSTDVEFNRKAGIILQERLETTTIVIVSHQPRTLEKFANTAAVLMNGQLHMFETLEEAKQLYDYETQG | not soluble |
| MMRGASKRSISSAAVLLIKKNKLPPRPKFTPEMEAQCTEKFLHGGRGPGGQKINKCNSKVQLRHEPTGIVVECQETRSREQNRKLARLKLARELAASYDTMPSREEALLQWHRQQKRSQRRRSVAKYEQREEAARVEKEEREARDREMVRELFRR | soluble |
| VAHFTFQPDPEPREYGQTQKMNLFQSVTSALDNSLAKDPTAVIFGEDVAFGGVFRCTVGLRDKYGKDRVFNTPLCEQGIVGFGIGIAVTGATAIAEIQFADYIFPAFDQIVNEAAKYRYRSGDLFNCGSLTIRSPWGCVGHGALYHSQSPEAFFAHCPGIKVVIPRSPFQAKGLLLSCIEDKNPCIFFEPKILYRAAAEEVPIEPYNIPLSQAEVIQEGSDVTLVAWGTQVHVIREVASMAKEKLGVSCEVIDLRTIIPWDVDTICKSVIKTGRLLISHEAPLTGGFASEISSTVQEECFLNLEAPISRVCGYDTPFPHIFEPFYIPDKWKCYDALRKMINYGGHHHHHH | soluble |
| SMCPGCGCGRIIHLGLGTEQVEAYVREHFPHARVDRMDRDTTARRGGHARILRKVAERQTDILIGTQMVAKGHDFPGITLVGILSVESTLNIPDYRSAERTFQLVTQLIGRAGRGDDPGRVLIQSLNP | not soluble |
| MLLFPRRTNIAFFKTTGIFANFPLLGRTITTSPSFLTHKLSKEVTRASTSPPRPKRIVVAITGATGVALGIRLLQVLKELSVETHLVISKWGAATMKYETDWEPHDVAALATKTYSVRDVSACISSGSFQHDGMIVVPCSMKSLAAIRIGFTEDLITRAADVSIKENRKLLLVTRETPLSSIHLENMLSLCRAGVIIFPPVPAFYTRPKSLHDLLEQSVGRILDCFGIHADTFPRWEGIKSK | soluble |
| MMSSGPLDPSDVTLFTSYPSPIVVPLEFIEEQSKSSREELEIDESGLYIMSKALEEFMRTVMRGATQNGSRLLDYDSIAEFFANSEFRALKDFFPERVRFDEIESEILPTRATGPSNSS | not soluble |
| LSGLTRPQEGTDEVTDAHASACLAALERGFDAEWGGFGGEPKFPRPAVLSFLFSHAVATGNRHALDMALLTLRKMAAGGIHDHLGVAGLGGGGFARYSTDRFWHVPHFEKMLYDNAQLAASYLEAYQASGDELFANTARDIFHYVLCDMTSPEGAFWSAEDADSLDPYGSGEKREGAFYLWTEQEITGLLDPEEATLFIATYGIRSDGNAPFDPHGEFTGKNILIRTMSDNELAGTFEIPIETVGKRLNSARKKLFEARKKRPRPGLDDKILTSWNGLMLSALAKGSLVLGDTTLLEAAERAARFILDTLCDSKSGKLLRRYRDGQAAIEGKAADYACLILGLLDLYSASFDSDWLRAAIKLAEAQIERFFDQEAGVFYSTAVEDHSVPLR | not soluble |
| SVCAAQNCQRPCKDKVDWVQCDGGCDEWFHQVCVGVSPEMAENEDYICINCA | soluble |
| MKYRIVRIELKSDDEVTLYLKSASRKPGVMAKADFSDPVKVIEFGLQMGMDLARRIEELMQFDAFLTVPYDYYSMNELKVGDVVEVEVRLAER | not soluble |
| QAMKELSKSDRTRQFIIESTAPVFNVKGLAGTSLTDLTEATNLTKGSIYGNFENKEAVAIAAFDYNWGHVKSVLTAKVQACNTYKEMLLVYSSMYNDADGSLFPVGGCPLLNTTIEADDTHDALRKKAGEAILSWKKNLVTIIKKGIQAKEFRPDTDVTKIAFSMIALVEGAILIHRATKNRAYSDYVFESLEDLIAGIEVKKK | soluble |
| MVLNIKRASSLDGATINVQDVLKPFDHQVGGHTPFTSLPNGHLLKPCEEREILFYQKMPKILKSIAPLCCSTIQGSSVSTLDDSCSNCRHHQLENVVIPESIEGSPILNKRKLSKNFIVLSDLTYRMKSPRILDLKLGTRQHGDQATVSKIACMTAKCQATTSATLGIRLCGMKIPFLEQNSQNFAPNFAPNSAAPNFAPKSEISINKYMGRSMDKTDLFLAVKQFFDVPEAVLEEVERRLLGIRDVLCGADGVRLFGASLLIVIESNFSDSQLPIDNLVRIKVVDFANATFGGLQGDSFYDGRDDGSILGLETLLEIVKGKN | not soluble |
| MAHHHHHHMVKGDCIRAAHLLIKFDGSRNCVSHRTGKSTADLTYDAALAELKQWAKRIADGEITFEDAARQRSDCGSYNSGGDLGFFGPGVMMKPFEDAARSLNVGEVSGVVRTESGLHIIKRLA | soluble |
| MIIEKKIKNYTVFVKKDGEKYIEIFKDFLSYNHQVIKVFRNIEDTKVVLINTDYGKYILKVFSPKVKNTERFFKSLVKGDYYEKLFHQTDRVRREGFAALNDFYLLAEIKTLRYVKTYVMIIEYIEGIELVDMPEISDEVRGKIKQSIYSLHQHGMVSGDPHKGNFILQGNEIRIIDLSGKRPSRQRKAKDRIDLERHYGIKNNVRDIGFYLLIYKKKLRNFLRRIKGKEKRLEHHHHHH | not soluble |
| MQKNNNKLTMSARFGEWYKEATENCAERELYATSLIARMDWVVDPISSKSYRYDLTTDLNKNHSSAWYDVATEICNKRKETVIRAILEDNIKIENF | soluble |
| MAATATEKLPQLKSAVDGLTEMSENEKSGFINLVSRYLSGEAQHIEWSKIQTPTDEIVVPYDKMANVSEDASETKYLLDKLVVLKLNGGLGTTMGCTGPKSVIEVRDGLTFLDLIVIQIENLNNKYNCKVPLVLMNSFNTHDDTQKIVEKYTKSNVDIHTFNQSKYPRVVADEFVPWPSKGKTDKDGWYPPGHGDVFPSLMNSGKLDAFLSQGKEYVFIANSDNLGAIVDLKILKHLIQNKNEYCMEVTPKTLADVKGGTLISYEGKVQLLEIAQVPDEHVNEFKSIEKFKIFNTNNLWVNLKAIKKLVEADALKMEIIPNPKEVDGVKVLQLETAAGAAIRFFDNAIGVNVPRSRFLPVKATSDLLLVQSDLYTLVDGFVTRNKARTNPTNPAIELGPEFKKVASFLSRFKSIPSIVELDSLKVSGDVWFGSGVVLKGKVTVKANAGTKLEIPDNAVLENKDINGPEDL | soluble |
| MGSDKIHHHHHHMTETLVQVQKLAMDFPGQKLFNNLSFDVDRRDFLSIIGENGVGKTTLIRALLNQVKPTSGSIKFRKGTKVGYVPQFRNIERDYPLSIRDFVALNLQNGKMPWLSKMERTQLDEILEETDLVDIQNTRIGRASGGQKQKAYLAQALVDNPDLLILDESTASLDTVRKYELFNLVQHFNQQHDLTVISVTHDFDLMQRYSNRYLMLKEDHYALGEVADIKNEEDLLDV | not soluble |
| MGSDKIHHHHHHVVVFCGMGTLGPSFPEVPWLRLGVMSTDPKPGAEHPHEVENLDNHECWRLLRSVSVGRLAVWVEDHPDIFPINYKVDHGTLVFRTADGTKLQAATGDTPVAVEADGVDADSGVAWSVVIKGQAAPVKNQQEVLDTVGLLLFPWQAGKKEHFVRITPDTVTGRRFKVTPPLTWWTPLDDATRSGFE | not soluble |
| MQEKAVVLDDQMIRRALTRISHEIVERNKGVDNCVLVGIKTRGIFIAQRLAERIGQIEGKEMEVGELDITLYRDDLTLQSKNKEPLVKGSDIPVDITKKKVILVDDVLYTGRTVRAAMDALMDLGRPSQIQLAVLVDRGHRELPIRADYVGKNIPTSSEERIEVDLQETDQQDRVSIYDK | soluble |
| MGSDKIHHHHHHMPPVWTLPRLYQHFQGAIDLELWTIPYYLTVLYSIKDPTTVPYRLIQAAVYQEMLHAQLVSNIANAYGYSPTLSAPEYVGTAVPHIDFDLDTPNPTSIFTPYSAELGPLDLTRVNTMCLIEYPEWRTQREPDLADDVTDYGSIGEFYDALRVGMEQLRGHVRGNQKQMDEFGPFYQNSPPLTVTESGDAGFLQALTLVDIIVDQGEGQTQPVETIPTEFQNTADGFQDAWPHFQRFDFIRRMPNWPGVYTGVTDPPAGSPGAEAQARLIADFAGFLDILNGMFSGGGAPPAFGVQMAKLGGDILSCWKLGAVPRYS | not soluble |
| MSHAIQIREAHFPGRAPIDAYGNGGFRFADMSHRGSIICIPSGIYGIDMTGPVPTQEDISRVLEESDQIEVLLIGTGVELLRLPEELRVLLWEKRISSDTMSTGAAVRTFNVLLAEDRAVAALLFAVE | soluble |
